We go through 2 molecules from PMC3855715, “Two high-resolution structures of the human E3 ubiquitin ligase Siah1” (Acta Crystallographica Section F, 2013).

In general, stoichiometry N refers to a count of units in the complex or per binding partner.

Data set [1] concerns the molecule itself. In words: SEC; size-exclusion chromatography during purification of Siah1 91-282; single species of approximate mass 39 kDa. In general terms: In gel filtration, larger molecules generally elute earlier.
In data set [2] the target is T1, Siah1 (construct used for the complex with SIP, limits not stated) (human, UniProt Q8IUQ4 1-282).
T1 construct: Siah1 (seven-in-absentia homologue 1), human, UniProt Q8IUQ4
T1 sequence (looked up): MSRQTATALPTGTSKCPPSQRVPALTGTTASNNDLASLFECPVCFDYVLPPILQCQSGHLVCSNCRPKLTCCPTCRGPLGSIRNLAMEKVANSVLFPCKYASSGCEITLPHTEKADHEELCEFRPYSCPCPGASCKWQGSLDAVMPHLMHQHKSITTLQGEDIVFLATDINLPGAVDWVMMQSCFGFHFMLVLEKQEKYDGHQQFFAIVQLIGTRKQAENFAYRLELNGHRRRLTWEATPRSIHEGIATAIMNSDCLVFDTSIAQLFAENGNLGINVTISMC
In words: SEC; size-exclusion gel chromatography of Siah1 with full-length SIP; complex purified. The note with it: both partners purified.

B1: human Siah1 without the RING domain (residues 91-282) (domain or fragment)
chain: MANSVLFPCKYASSGCEITLPHTEKADHEELCEFRPYSCPCPGASCKWQGSLDAVMPHLMHQHKSITTLQGEDIVFLATDINLPGAVDWVMMQSCFGFHFMLVLEKQEKYDGHQQFFAIVQLIGTRKQAENFAYRLELNGHRRRLTWEATPRSIHEGIATAIMNSDCLVFDTSIAQLFAENGNLGINVTISMC
notes: additional methionine at the N-terminus, a cloning artifact (seen in chain A of the 1.95 A structure); also called seven-in-absentia homologue 1; truncated Siah1; source: E. coli, purified as described previously (Rimsa et al., 2013)
Consider B1, for which, in data set [1], the “stoichiometry N” value came to 2.

B2: full-length human SIP (Siah-interacting protein) (natural protein, UniProt Q9HB71 1-228, looked up)
chain: MASEELQKDLEEVKVLLEKATRKRVRDALTAEKSKIETEIKNKMQQKSQKKAELLDNEKPAAVVAPITTGYTVKISNYGWDQSDKFVKIYITLTGVHQVPTENVQVHFTERSFDLLVKNLNGKSYSMIVNNLLKPISVEGSSKKVKTDTVLILCRKKVENTRWDYLTQVEKECKEKEKPSYDTETDPSEGLMNVLKKIYEDGDDDMKRTINKAWVESREKQAKGDTEF
With B2, the “stoichiometry N” value in data set [2] was 1.
